Reference: patent US20240025988A1 (GlaxoSmithKline, published 2024)
Changes are numbered by the printed parent chain. Where “and” joins values, the source holds several entries; their conditions need not be identical. Equal values may be shown once. Blank lines part the entries; values can stand above or below the binder they belong to.

How the values were obtained:
human IL-7 [1] = target: T1, human IL-7 (human, UniProt P13232 26-177); assay: cell-based or functional assay
T1 sequence: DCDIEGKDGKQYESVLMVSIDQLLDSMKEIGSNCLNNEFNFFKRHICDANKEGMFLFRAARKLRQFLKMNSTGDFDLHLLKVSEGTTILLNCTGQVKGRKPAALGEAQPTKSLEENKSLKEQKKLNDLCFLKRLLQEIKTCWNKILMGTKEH

human IL-7 [2] = target: T1, human IL-7; assay: SPR, Biacore 8K, 37 °C; geometric mean KD from all experiments, with 85% confidence interval in brackets
cynomolgus monkey IL-7 [3] = target: T2, cynomolgus monkey IL-7 (cynomolgus monkey, UniProt A0A2K5W745 26-178); assay: SPR, Biacore 8K, 25 °C, IL-7 as analyte
T2 construct: also called cynoIL-7; cynomolgus IL-7
T2 sequence: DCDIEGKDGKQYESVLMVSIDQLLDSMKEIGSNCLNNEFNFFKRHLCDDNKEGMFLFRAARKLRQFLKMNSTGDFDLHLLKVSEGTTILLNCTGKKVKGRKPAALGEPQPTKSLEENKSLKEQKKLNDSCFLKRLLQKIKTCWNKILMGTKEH
Excerpt: (§1) (Table 5). […] (Table 5).

human IL-7 [4] = target: T1, human IL-7; assay: SPR, Biacore 8K, 25 °C, IL-7 as analyte
Excerpt: as §1

cynomolgus monkey IL-7 [5] = target: T2, cynomolgus monkey IL-7; assay: SPR, Biacore 8K, 37 °C (text value; Table 5 prints 73); 37 C; value of the running text
Excerpt: as §1

human IL-7 [6] = target: T1, human IL-7; assay: cell-based or functional assay; remark: listed apart in the source
cynomolgus monkey IL-7 [7] = target: T2, cynomolgus monkey IL-7; assay: SPR, Biacore 8K, 37 °C, IL-7 as analyte
Excerpt: as §1

human IL-7 [8] = target: T1, human IL-7; assay: SPR, Biacore 8K, 37 °C, IL-7 as analyte
Excerpt: as §1

- IFN-γ production by PBMC, IC50 (IL-7 10 ng/ml, anti-CD3) (human IL-7 [1]): 196 pM and 29.4 ng/ml
- IL-17 production by Tmem, IC50 (IL-7 20 ng/ml) (human IL-7 [1]): 40.5 ng/ml and 270 pM
- Teff and Tmem proliferation (CD4+), IC50 (IL-7 10 ng/ml) (human IL-7 [1]): 79.5 ng/ml and 530 pM
- Teff and Tmem proliferation (CD4+), IC50 (IL-7 20 ng/ml) (human IL-7 [1]): 78 ng/ml and 520 pM
- pSTAT5 in CCRF-CEM cells, IC50 (IL-7 0.034 ng/ml, 2 pM) (human IL-7 [1]): < 0.15 ng/ml and < 1 pM
- pSTAT5 in whole blood (CD4+ T cells), median IC50 (IL-7 1 ng/ml) (human IL-7 [1]): 5.1 ng/ml and 34 pM
- Kd (human IL-7 [2]): 67.4 pM
- Kd (cynomolgus monkey IL-7 [3]): 53 pM
- koff (cynomolgus monkey IL-7 [3]): 0.00017 s⁻¹
- kon (cynomolgus monkey IL-7 [3]): 3.17e+06 M⁻¹ s⁻¹
- Kd (human IL-7 [4]): 31 pM and 34 pM
- koff (human IL-7 [4]): 0.000206 s⁻¹ and 0.000158 s⁻¹
- kon (human IL-7 [4]): 6.49e+06 M⁻¹ s⁻¹ and 4.65e+06 M⁻¹ s⁻¹
- Kd (cynomolgus monkey IL-7 [5]): ~75 pM
- IL-6 secretion by CD4+ Tmem cells, IC50 (human IL-7 [6]): 202 pM
- IL-10 secretion by PBMC (rhIL-7 and anti-CD3), mean IC50 (human IL-7 [6]): 207 pM
- TNFα secretion by CD4+ Tmem cells, IC50 (human IL-7 [6]): 127 pM
- Kd (cynomolgus monkey IL-7 [7]): 73 pM
- koff (cynomolgus monkey IL-7 [7]): 0.000462 s⁻¹
- kon (cynomolgus monkey IL-7 [7]): 6.17e+06 M⁻¹ s⁻¹
- Kd (human IL-7 [8]): 69 pM and 46 pM and 75 pM and 87 pM
- koff (human IL-7 [8]): 0.000568 s⁻¹ and 0.000678 s⁻¹ and 0.000826 s⁻¹ and 0.000515 s⁻¹
- kon (human IL-7 [8]): 8.28e+06 M⁻¹ s⁻¹ and 1.47e+07 M⁻¹ s⁻¹ and 1.1e+07 M⁻¹ s⁻¹ and 5.9e+06 M⁻¹ s⁻¹
B1: DRSPAI-L7B (antibody, human IgG1, kappa, V domains shown)
VH: QVQLVESGGGVVQPGRSLRLSCAASGFTFSSYGVHWVRQAPGKGLEWLAAIWTGGSTDYNSAFSSRFTISRDNSKNTLYLQMNSLRAEDTAVYYCARNGYGESFAYWGQGTLVTVSS
VL: DIQMTQSPSSLSASVGDRVTITCKASESLDHDGDSYINWYQQKPGKAPKLLIYMGSNVEFGVPARFSGSGSGTDFTLTISSLQPEDFATYYCQQSNVDPLTFGGGTKVEIKR
notes: Human IgG1 kappa; also called DRSPAI-171B; DRSPAI-17B

- pSTAT5 in whole blood (CD4+ T cells), median IC50 (human IL-7 [6]): 16 pM and 0.00246 µg/ml
B2: A1291 (antibody, human IgG1, kappa, V domains shown)
VH: B1 VH with V34L, S61A, A62E
VL: B1 VL with E27H, L29V, H31D, I37M, G55A, V58L, F60S, V97E

- pSTAT5 in whole blood (CD4+ T cells), median IC50 (human IL-7 [6]): 18 pM and 0.00275 µg/ml
B3: A1290 (antibody, human IgG1, kappa, V domains shown)
VH: B1 VH with V34L, S61A, S64I
VL: B1 VL with E27Q, L29V, H31D, Y36F, M54V, G55A, V58L, F60S, V97E

- pSTAT5 in whole blood (CD4+ T cells), median IC50 (human IL-7 [6]): 76 pM and 0.0114 µg/ml
B4: A1294 (antibody, human IgG1, kappa, V domains shown)
VH: B1 VH with S31T, T53S, S61V
VL: B1 VL with E27Q, L29V, H31D, I37M, G55A, V58L, F60S, V97E
